The source of these data is PMC6123785.

Assay [1] concerns the target parathyroid hormone receptor 1 BRET-biosensor PTHR1_(Nluc/Halo618) (UniProt Q03431).
A further assay addresses PTHR1 wild-type receptor (UniProt Q03431).
The target of assay [2] is parathyroid hormone receptor 1 BRET-biosensor PTHR1_(Nluc/Halo618) (UniProt Q03431). The source holds these as a separate data set.

As for PTH(1-34) (peptide), the Supplementary Figure 6f: pEC50 of PTH(1-34), PTHR1 mediated cAMP response (FRET-based H187-EPAC cAMP sensor co-transfected with the biosensor PTHR1Nluc/Halo) (pEC50 (-log M)) in assay [1] was 7.57. For the same substance, in the assay with PTHR1 wild-type receptor, the Supplementary Figure 6f: pEC50 of PTH(1-34), PTHR1 mediated cAMP response (FRET-based H187-EPAC cAMP sensor co-transfected with the wild-type receptor) (pEC50 (-log M)) stood at 9.52. In assay [2], this substance registered a change in intramolecular BRET of the PTHR1 (Nluc/Halo618) sensor in intact cells, 96-well plate, 37 °C, saturating ligand (Fig. 3d); serial dilutions for a concentration-response curve (Fig. 3e) of 10%.
